Assay results reported in PMC10016340 (Chemical Science, 2023).

Legend:
[1] = molecular target: α-syn monomers, oligomers or fibrils (Homo sapiens, UniProt P37840); experiment: Dot-blot binding assay; conditions: 0.05–0.4 μg immobilized protein, 33 μg mL^−1 α-syn monomer, oligomer or fibril
α-syn = α-syn (Homo sapiens, UniProt P37840); experiment: ThT aggregation kinetics of α-syn; assay type: biochemical; conditions: 20 μM α-syn, 5 μM ligand; α-syn alone half-time 44 h
αSOs-Alexa488 = αSOs-Alexa488 (Homo sapiens, UniProt P37840); experiment: FIDA binding of αSOs to neuronal proteins in solution; conditions: up to 150 μM ligand, in solution

Molecule	Binding preference for α-syn species in dot blot [1]	Reduction of half-time of aggregation (α-syn) [fold]	Change in Rh of αSOs-Alexa488 on titration with ligand (αSOs-Alexa488)
Ubiquitin carboxyl-terminal hydrolase isozyme L1 (UCH-L1) (protein) MQLKPMEINPEMLNKVLSRLGVAGQWRFVDVLGLEEESLGSVPAPACALLLLFPLTAQHENFRKKQIEELKGQEVSPKVYFMKQTIGNSCGTIGLIHAVANNQDKLGFEDGSVLKQFLSETEKMSPEDRAKCFEKNEAIQAAHDAVAQEGQCRVDDKVNFHFILFNNVDGHLYELDGRMPFPVNHGASSEDTLLKDAAKVCREFTEREQGEVRFSAVALCKAA	bound most strongly to fibrils	3	little change in Rh
NAD-dependent protein deacetylase sirtuin-2 (protein) MAEPDPSHPLETQAGKVQEAQDSDSDSEGGAAGGEADMDFLRNLFSQTLSLGSQKERLLDELTLEGVARYMQSERCRRVICLVGAGISTSAGIPDFRSPSTGLYDNLEKYHLPYPEAIFEISYFKKHPEPFFALAKELYPGQFKPTICHYFMRLLKDKGLLLRCYTQNIDTLERIAGLEQEDLVEAHGTFYTSHCVSASCRHEYPLSWMKEKIFSEVTPKCEDCQSLVKPDIVFFGESLPARFFSCMQSDFLKVDLLLVMGTSLQVQPFASLISKAPLSTPRLLINKEKAGQSDPFLGMIMGLGGGMDFDSKKAYRDVAWLGECDQGCLALAELLGWKKELEDLVRREHASIDAQSGAGVPNPSTSASPKKSPPPAKDEARTTEREKPQ	–	–	little change in Rh
